{
  "source": "paper PMC6825360",
  "about": "“Chaetomella raphigera β-glucosidase D2-BGL has intriguing structural features and a high substrate affinity that renders it an efficient cellulase supplement for lignocellulosic biomass hydrolysis” (Biotechnology for Biofuels, 2019)",
  "molecules": {"B1": {"name": "β-glucosidase D2-BGL: Endo H (protein)", "parent chain": "PGDGDWAAAYKKATAALAKLSNTDKASIVTGVGWEKGPCVGNTAAVASIGLPELCYQDGPLGIRFVQNVTAFPTGIQTASTWDISLIYSRGLALGQEAKALGINVQLGPVAGPIGKIPEAGRNWEGFSPDPYLNGLAMSNTITGMQDAGVQACAKHFIGNEQETNRDTMSSNIDDRTFHELYLWPFADAIKANVASIMCSYNKFNETYACENNFLTTILKGELDFQGFVVSDWAAQHTTIGSANAGLDVAMPGDNFGDNYYLWGSNLLAAISNGTVAQSRLDDMVTRILASWYFVGQDQGYPAVTWSSWNGGLGGPNVQADHKQVARAIARDGIVLLTNKNKALPLKKPASLAIIGQDAIDNPAGINSCSDRGCDTGHLAMGWGSGTADFPYLVAPLDAITPLAQAQGTKLVLSTTDSTSAAASAAAAAETAIVFITADSGEGYITVDGQLGDRNSLAPWNNGTALVQAVASASKNVIVVINSVGPLILEDILALSSVKAIVWAGVSGQESGNGLADILYGSVSPSGKLPYTIAKQASDYGTAIVPGDDNFPEGLFVDYRHFDQANIQPRFEFGYGLSYTTFQYSQLTAKYSDTSAGSSTLAPGGPKGLYDIVATVTAKVTNSGTVSGAEVAQLYIGLPGSAPASPPKQLRGFDKISLKPGKSGTVTFNLRRKDLSYWDTASAQWVTPTSGEFSLYVGASSRDIRLQGSLKCSGQGIRKGGH"}, "B2": {"name": "β-glucosidase D2-BGL: N68Q (protein)", "parent chain": "B1 parent chain"}, "B3": {"name": "β-glucosidase D2-BGL: T431A (protein)", "parent chain": "B1 parent chain"}, "B4": {"name": "D2-BGL (Chaetomella raphigera) (protein)", "chain": "B1 parent chain"}},
  "key": {"[1]": {"molecular_target": "D2-BGL (Chaetomella raphigera, UniProt A0A068FT77, INS255S/N255I, form not given)", "test": "cellobiase assay, glucose release, crude secreted enzyme", "format": "biochemical", "conditions": "crude enzyme from P. pastoris culture; mutant N255* (N255 replaced by two residues I-S); wild type measured beside it 1.45 mM"}, "[2]": {"molecular_target": "T1, D2-BGL (Chaetomella raphigera, UniProt A0A068FT77)", "T1 construct": "secreted recombinant from Pichia pastoris SMD1168 (pGAPZalphaC), His-tagged (strain #5 has an extra N-terminal 6-His), IMAC purified, N-hyperglycosylated, smear 95-180 kDa; TIM barrel 1-307, alpha/beta sandwich 319-521, FnIII 573-712", "T1 sequence (A0A068FT77 1-722)": "B1 parent chain", "test": "inhibition of pNPG hydrolysis at […] glucose, absorbance of pNP at […] nm, non-linear fit", "format": "biochemical", "conditions": "read-out: Ki glucose; substrate pNPG; pH 5 (50 mM sodium acetate), 55 °C; product inhibition"}, "[3]": {"test": "cellobiase assay after non-denaturing deglycosylation", "conditions": "glycan lost; control: non-deglycosylated enzyme"}, "[4]": {"test": "productivity from culture supernatant activity, P. pastoris", "conditions": "glycan lost; control: wild type"}, "[5]": {"test": "specific activity of purified enzyme", "conditions": "glycan lost; control: wild type"}, "[6]": {"substrate": "O=[N+]([O-])c1ccc(O[C@@H]2O[C@H](CO)[C@@H](O)[C@H](O)[C@H]2O)cc1", "test": "purified protein", "conditions": "pH 5 (50 mM sodium acetate), 55 °C, 10 min"}},
  "data": [
    {"molecule": "OC[C@H]1O[C@@H](O[C@H]2[C@H](O)[C@@H](O)C(O)O[C@@H]2CO)[C@H](O)[C@@H](O)[C@@H]1O", "note": "(stereo partly drawn) [cellobiose]", "values": [
      {"measurement": "Km", "setting": "[1]", "result": 2840, "unit": "µM"}
    ]},
    {"molecule": "OC[C@H]1OC(O)[C@H](O)[C@@H](O)[C@@H]1O", "note": "(stereo partly drawn) [glucose]", "values": [
      {"measurement": "Ki", "setting": "[2]", "result": "2420 ± 690", "unit": "µM"}
    ]},
    {"molecule": "B1", "values": [
      {"measurement": "enzymatic_activity, other: specific activity", "setting": "[3]", "result": "no change, 185 ± 21 vs 209 ± 14"}
    ]},
    {"molecule": "B2", "values": [
      {"measurement": "expression_or_secretion, other: productivity", "setting": "[4]", "result": "decreases, 4.5 vs 9.6, N68Q mutant (0.98 ± 0.22 U/mL) ... relative to that of wild-type (1.89 ± 0.18 U/mL)"},
      {"measurement": "enzymatic_activity, other: specific activity", "setting": "[5]", "result": "no change, 216 ± 23 vs 197 ± 3"}
    ]},
    {"molecule": "B3", "values": [
      {"measurement": "expression_or_secretion, other: productivity", "setting": "[4]", "result": "decreases, 3.2 vs 9.6, T431A mutant (0.61 ± 0.05 U/mL)"},
      {"measurement": "enzymatic_activity, other: specific activity", "setting": "[5]", "result": "no change, 189 ± 11 vs 197 ± 3"}
    ]},
    {"molecule": "B4", "values": [
      {"measurement": "Km", "setting": "[6]", "result": "200 ± 100", "unit": "µM"},
      {"measurement": "Vmax", "setting": "[6]", "result": 419, "unit": "µmol/min/mg"}
    ]}
  ]
}
